{
  "source": "patent US8822420B2",
  "about": "“Peptides and aptamers thereof as specific modulators of mutant p53 function” (Universita Degli Studi di Trieste, priority 2008, dated 2014)",
  "key": {"[1]": {"target": "T1, p53 R273H (Homo sapiens, UniProt P04637, R273H)", "T1 construct": "expression of full-length point mutants (hereinafter identified also as mut-p53 or mutant p53); expressed in transfected cells; host or cells: H1299 (p53-null)", "test": "EGR1-Luc luciferase assay in H1299 cells, p53 R273H", "assay_type": "cell-based", "conditions": "peptide 1.6, 4, 20 μM", "experimental": "(§1) (a) The effect of PAs on mutant p53 transactivating activity was analyzed in MG63 cells transiently transfected with Myc-Luc reporter along with constructs expressing p53 D281G or empty vector and with p[…] vectors expressing PAs or control vectors pLPC-EGFP (EGFP) or p[…] (TNV). The promoter activity measured in each experiment was normalized to the value measured in the absence of mutant p53. RLU: Relative Luciferase Units. […] Expression of mutant p53 and PAs was analyzed by Western Blot with the indicated antibodies. (b) The effect of FsA79 peptide on the transactivation of EGR1 promoter by mutant p53 was analyzed in H1299 cells, transfected with EGR1-Luc reporter along with plasmids encoding either p53R175H (left) or p53R273H (right) and treated with increasing amounts of FsA79 peptide (1.6, 4, 20 μM). […] (c) The effect of PAs on p53 wt transcriptional activity was analyzed in H1299 cells transfected with p21-Luc reporter, wt p53-expressing vector or empty vector along with constructs expressing the EGFP-TNV-PAs or control vectors as in (a). […] (d) The effect of PAs on the transcriptional activity of TAp73α was analyzed as in (c). […] (e) The effect of PAs on p53 wt transcriptional activity was analyzed in H1299 cells transfected with Bax-Luc reporter, wt-p53 expressing vector or empty vector together with constructs expressing EGFP-TNV-PAs or control vectors as in FIG. 3(c). […]"}, "[2]": {"target": "T2, p53 R175H (Homo sapiens, UniProt P04637, R175H)", "T2 construct": "expression of full-length point mutants (hereinafter identified also as mut-p53 or mutant p53); expressed in transfected cells; host or cells: H1299 (p53-null)", "test": "EGR1-Luc luciferase assay in H1299 cells, p53 R175H", "assay_type": "cell-based", "conditions": "peptide 1.6, 4, 20 μM", "experimental": "as §1"}, "[3]": {"target": "T3, TAp73α (Homo sapiens, UniProt O15350)", "T3 construct": "expressed in transfected cells; host or cells: H1299", "T3 sequence (O15350 1-636)": "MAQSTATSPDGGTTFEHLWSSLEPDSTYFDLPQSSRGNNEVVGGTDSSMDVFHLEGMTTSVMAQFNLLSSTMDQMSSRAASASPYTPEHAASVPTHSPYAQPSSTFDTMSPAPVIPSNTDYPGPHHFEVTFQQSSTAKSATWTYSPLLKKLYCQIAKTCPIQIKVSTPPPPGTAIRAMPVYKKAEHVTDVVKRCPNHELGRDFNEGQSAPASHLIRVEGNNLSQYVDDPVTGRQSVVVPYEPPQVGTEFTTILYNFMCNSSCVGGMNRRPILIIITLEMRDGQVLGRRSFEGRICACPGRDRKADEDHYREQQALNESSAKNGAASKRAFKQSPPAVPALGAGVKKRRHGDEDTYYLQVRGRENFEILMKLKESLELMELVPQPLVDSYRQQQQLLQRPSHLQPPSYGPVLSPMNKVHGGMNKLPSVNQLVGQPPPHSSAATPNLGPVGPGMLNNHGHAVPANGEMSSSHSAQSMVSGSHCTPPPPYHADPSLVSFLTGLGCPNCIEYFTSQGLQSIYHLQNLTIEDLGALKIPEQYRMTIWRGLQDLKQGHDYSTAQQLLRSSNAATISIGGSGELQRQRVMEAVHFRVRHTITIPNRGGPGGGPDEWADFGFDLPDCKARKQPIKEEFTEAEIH", "test": "Bax-Luc luciferase assay in H1299 cells, TAp73α", "assay_type": "cell-based", "experimental": "(§2) (a) The effect of PAs on mutant p53 transactivating activity was analyzed in MG63 cells transiently transfected with Myc-Luc reporter along with constructs expressing p53 D281G or empty vector and with pLPC-EGFP-TNV vectors expressing PAs or control vectors pLPC-EGFP (EGFP) or pLPC-EGFP-TNV (TNV). The promoter activity measured in each experiment was normalized to the value measured in the absence of mutant p53. RLU: Relative Luciferase Units. […] Expression of mutant p53 and PAs was analyzed by Western Blot with the indicated antibodies. (b) The effect of FsA79 peptide on the transactivation of EGR1 promoter by mutant p53 was analyzed in H1299 cells, transfected with EGR1-Luc reporter along with plasmids encoding either p53R175H (left) or p53R273H (right) and treated with increasing amounts of FsA79 peptide (1.6, 4, 20 μM). Luciferase assays were performed and represented as in (a). (c) The effect of PAs on p53 wt transcriptional activity was analyzed in H1299 cells transfected with p21-Luc reporter, wt p53-expressing vector or empty vector along with constructs expressing the EGFP-TNV-PAs or control vectors as in (a). Luciferase assays were performed and represented as in (a). (d) The effect of PAs on the transcriptional activity of TAp73α was analyzed as in (c). […] (f) Effect of PAs on TAp73a transcriptional activity on Bax-Luc reporter was analyzed as described in FIG. 3(d). […]"}, "[4]": {"target": "T4, wild-type p53 (Homo sapiens, UniProt P04637)", "T4 construct": "expressed in transfected cells; host or cells: H1299", "test": "Bax-Luc luciferase assay in H1299 cells, wild-type p53", "assay_type": "cell-based", "experimental": "as §2"}, "[5]": {"target": "T2, p53 R175H", "test": "Co-immunoprecipitation of EGFP-TNV-PAs with p53 R175H in H1299 cells", "assay_type": "binding", "conditions": "H1299 cells co-transfected with p53 R175H and EGFP-TNV-PAs, IP anti-GFP"}, "[6]": {"tested_on": "Sk-Br-3 cells", "test": "PARP cleavage (p85) by Western Blot in Sk-Br-3 cells", "assay_type": "cell-based", "protocol": "(a) The apoptotic effect of PAs was analyzed in U20S (expressing p53 wt), H1299 (p53 null), Sk-Br-3 (expressing p53R175H) and MDA-MB-468 (expressing p53R273H) cells. Cells were transfected either with constructs expressing EGFP-TNV-PAs or with pLPCcontrol vector, harvested after 36 hours and stained with propidium iodide before analyzing the DNA content of EGFP-positive cells by flow cytometry. Histograms represent the average and the s.d. of the percentage of cells with sub-G1 DNA content measured in three independent experiments. […] At least 10000 EGFP-positive cells were analyzed in each acquisition. Histograms represent the average and s.d. of three independent experiments. […] Expression of the overexpressed EGFP-TNV-PAs as well as endogenous cleaved PARP (p85), p53R175H and the proapoptotic protein Bax was analyzed by Western Blot with the indicated antibodies. […] FACS analysis of DNA content was then performed as in (a). Aliquots of cell lysates untreated (NT) or treated with 50 μM Etoposide (Eto) were analyzed by Western Blot. […] Cells were transfected with EGFP-PAs and then left untreated or treated with 100 μM PRIMA-1. After additional 20 hours cells were harvested and analyzed as in FIG. 4(a). […]\nTo specifically evaluate the effect on cells expressing the aptamers, propidium-iodide staining was measured only in the GFP positive population."}, "[7]": {"tested_on": "Sk-Br-3 cells", "test": "AnnexinV-PE-Cyan5 staining by flow cytometry, Sk-Br-3 cells", "assay_type": "cell-based", "conditions": "Sk-Br-3, GFP positive cells, 36 hours after transfection", "experimental": "(§3) (a) The apoptotic effect of PAs was analyzed in U20S (expressing p53 wt), H1299 (p53 null), Sk-Br-3 (expressing p53R175H) and MDA-MB-468 (expressing p53R273H) cells. Cells were transfected either with constructs expressing EGFP-TNV-PAs or with pLPCcontrol vector, harvested after 36 hours and stained with propidium iodide before analyzing the DNA content of EGFP-positive cells by flow cytometry. Histograms represent the average and the s.d. of the percentage of cells with sub-G1 DNA content measured in three independent experiments. […] At least 10000 EGFP-positive cells were analyzed in each acquisition. Histograms represent the average and s.d. of three independent experiments. […] Expression of the overexpressed EGFP-TNV-PAs as well as endogenous cleaved PARP (p85), p53R175H and the proapoptotic protein Bax was analyzed by Western Blot with the indicated antibodies. (d) Analysis of AnnexinV-PE-Cyan5 binding of MDA-MB-468 cells treated and analyzed as described in FIG. 4(c). […] Aliquots of cell lysates untreated (NT) or treated with 50 μM Etoposide (Eto) were analyzed by Western Blot. […] After additional 20 hours cells were harvested and analyzed as in FIG. 4(a).\n(§4) Sk-Br-3, MDA-MB-468, H1299 or U20S cells were seeded in 6 wells and transfected with pLPCEGFP-TNV16mers or pLPCEGFP-TNV or pLPC. […] Cells were analyzed by cytofluorimeter (FACScalibur) after additional 20 minutes."}, "[8]": {"tested_on": "Sk-Br-3 cells", "test": "FACS analysis of DNA content (propidium iodide) of EGFP-positive Sk-Br-3 cells", "assay_type": "cell-based", "experimental": "(a) The apoptotic effect of PAs was analyzed in U20S (expressing p53 wt), H1299 (p53 null), Sk-Br-3 (expressing p53R175H) and MDA-MB-468 (expressing p53R273H) cells. Cells were transfected either with constructs expressing EGFP-TNV-PAs or with pLPCcontrol vector, harvested after 36 hours and stained with propidium iodide before analyzing the DNA content of EGFP-positive cells by flow cytometry. Histograms represent the average and the s.d. of the percentage of cells with sub-G1 DNA content measured in three independent experiments. […] At least 10000 EGFP-positive cells were analyzed in each acquisition. Histograms represent the average and s.d. of three independent experiments. […] Expression of the overexpressed EGFP-TNV-PAs as well as endogenous cleaved PARP (p85), p53R175H and the proapoptotic protein Bax was analyzed by Western Blot with the indicated antibodies. (d) Analysis of AnnexinV-PE-Cyan5 binding of MDA-MB-468 cells treated and analyzed as described in FIG. 4(c). […] FACS analysis of DNA content was then performed as in (a). Aliquots of cell lysates untreated (NT) or treated with 50 μM Etoposide (Eto) were analyzed by Western Blot. […] Cells were transfected with EGFP-PAs and then left untreated or treated with 100 μM PRIMA-1. After additional 20 hours cells were harvested and analyzed as in FIG. 4(a).\nSk-Br-3, MDA-MB-468, H1299 or U20S cells were seeded in 6 wells and transfected with pLPCEGFP-TNV16mers or pLPCEGFP-TNV or pLPC. For cell cycle analysis, cells were collected by trypsinization, recovering also the supernatants, and resuspended in PBS/0.1% Nonidet P-40 (NP-40) containing 2 μg/ml RnaseA. 10 min later, 10 μg/ml propidium iodide was added. Cells were analyzed by cytofluorimeter (FACScalibur) after additional 20 minutes."}, "[9]": {"tested_on": "MDA-MB-468 cells", "test": "AnnexinV-PE-Cyan5 staining by flow cytometry, MDA-MB-468 cells", "assay_type": "cell-based", "conditions": "MDA-MB-468, GFP positive cells, 36 hours after transfection", "experimental": "as §3, §4"}, "[10]": {"target": "T5, p53 D281G (Homo sapiens, UniProt P04637, D281G)", "T5 construct": "expression of full-length point mutants (hereinafter identified also as mut-p53 or mutant p53); expressed in transfected cells; host or cells: MG63 (p53-null)", "test": "c-Myc-Luc luciferase assay in MG63 cells", "assay_type": "cell-based", "conditions": "EGFP-TNV-PAs, 36 hours", "experimental": "as §1"}},
  "note": "No end group written: not given here. Ahx = NCCCCCC(=O)O",
  "data": [
    {"substance": "FAM-Ahx-peptide sA79 ({FAM-Ahx}-DVADWESCGEYWCYRV; cysteine pairing not given here) [FsA79, fluoresceinated version of sA79 peptide]", "values": [
      {"measurement": "effect on transactivation of EGR1-Luc reporter by p53 R273H", "setting": "[1]", "value": "inhibits the transactivation activity of both mutants"},
      {"measurement": "effect on transactivation of EGR1-Luc reporter by p53 R175H", "setting": "[2]", "value": "inhibits the transactivation activity of both mutants"}
    ]},
    {"substance": "IQITLTGWSARVTTSG [A60, 16mer peptide aptamer in thioredoxin scaffold; free peptide not synthetized]", "values": [
      {"measurement": "effect on transactivation activity of p73 on Bax-Luc reporter", "setting": "[3]", "value": "all aptamers, but A60, do not significantly affect"},
      {"measurement": "effect on transactivation activity of wild-type p53 on Bax-Luc reporter", "setting": "[4]", "value": "all aptamers, but A60, do not significantly affect"},
      {"measurement": "binding to p53 R175H by co-immunoprecipitation", "setting": "[5]", "value": "showed a stronger interaction with p53 R175H"}
    ]},
    {"substance": "AKYCQCAAKVRVTAAM [A3]", "values": [
      {"measurement": "binding to p53 R175H by co-immunoprecipitation", "setting": "[5]", "value": "showed a stronger interaction with p53 R175H"}
    ]},
    {"substance": "GPVVPRTQYMSLAFGW [A29]", "values": [
      {"measurement": "cleaved p85 fragment of PARP-1", "setting": "[6]", "value": "evident increase"},
      {"measurement": "AnnexinV positive cells", "setting": "[7]", "value": "approximately 30%"},
      {"measurement": "apoptotic response (sub-G1) compared with Etoposide treatment alone", "setting": "[8]; Sk-Br-3", "value": "comparable to that observed upon drug treatment alone"},
      {"measurement": "sub-G1 peak compared with PRIMA-1", "setting": "[8]; Sk-Br-3, PRIMA-1 100 μM for 20 hours", "value": "comparable to that induced by PRIMA-1"},
      {"measurement": "AnnexinV positive cells", "setting": "[9]", "value": "approximately 30%"},
      {"measurement": "binding to p53 R175H by co-immunoprecipitation", "setting": "[5]", "value": "showed a stronger interaction with p53 R175H"}
    ]},
    {"substance": "QRGLYCSCVTNQNAEV [B6, reference compound]", "values": [
      {"measurement": "AnnexinV positive cells", "setting": "[7]", "value": "less than 15%"},
      {"measurement": "effect on transactivation activity of mutant p53 on c-Myc-Luc reporter", "setting": "[10]", "value": "did not showed any effect"},
      {"measurement": "sub-G1 peak (apoptotic cell death)", "setting": "[8]; Sk-Br-3 (p53 R175H), GFP positive population, 36 hours after transfection", "value": "unable to induce apoptosis"},
      {"measurement": "AnnexinV positive cells", "setting": "[9]", "value": "less than 15%"}
    ]},
    {"substance": "VWAESCDDCGEYWRYV [A79]", "values": [
      {"measurement": "binding to p53 R175H by co-immunoprecipitation", "setting": "[5]", "value": "showed a stronger interaction with p53 R175H"}
    ]}
  ]
}
